B1: DNA polymerase processivity factor (Human cytomegalovirus (strain AD169) (HHV-5)), P16790 (parent)
chain: MDRKTRLSEPPTLALRLKPYKTAIQQLRSVIRALKENTTVTFLPTPSLILQTVRSHCVSKITFNSSCLYITDKSFQPKTINNSTPLLGNFMYLTSSKDLTKFYVQDISDLSAKISMCAPDFNMEFSSACVHGQDIVRESENSAVHVDLDFGVVADLLKWIGPHTRVKRNVKKAPCPTGTVQILVHAGPPAIKFILTNGSELEFTANNRVSFHGVKNMRINVQLKNFYQTLLNCAVTKLPCTLRIVTEHDTLLYVASRNGLFAVENFLTEEPFQRGDPFDKNYVGNSGKSRGGGGGGGSLSSLANAGGLHDDGPGLDNDLMNEPMGLGGLGGGGGGGGKKHDRGGGGGSGTRKMSSGGGGGDHDHGLSSKEKYEQHKITSYLTSKGGSGGGGGGGGGGLDRNSGNYFNDAKEESDSEDSVTFEFVPNTKKQKCG
partner: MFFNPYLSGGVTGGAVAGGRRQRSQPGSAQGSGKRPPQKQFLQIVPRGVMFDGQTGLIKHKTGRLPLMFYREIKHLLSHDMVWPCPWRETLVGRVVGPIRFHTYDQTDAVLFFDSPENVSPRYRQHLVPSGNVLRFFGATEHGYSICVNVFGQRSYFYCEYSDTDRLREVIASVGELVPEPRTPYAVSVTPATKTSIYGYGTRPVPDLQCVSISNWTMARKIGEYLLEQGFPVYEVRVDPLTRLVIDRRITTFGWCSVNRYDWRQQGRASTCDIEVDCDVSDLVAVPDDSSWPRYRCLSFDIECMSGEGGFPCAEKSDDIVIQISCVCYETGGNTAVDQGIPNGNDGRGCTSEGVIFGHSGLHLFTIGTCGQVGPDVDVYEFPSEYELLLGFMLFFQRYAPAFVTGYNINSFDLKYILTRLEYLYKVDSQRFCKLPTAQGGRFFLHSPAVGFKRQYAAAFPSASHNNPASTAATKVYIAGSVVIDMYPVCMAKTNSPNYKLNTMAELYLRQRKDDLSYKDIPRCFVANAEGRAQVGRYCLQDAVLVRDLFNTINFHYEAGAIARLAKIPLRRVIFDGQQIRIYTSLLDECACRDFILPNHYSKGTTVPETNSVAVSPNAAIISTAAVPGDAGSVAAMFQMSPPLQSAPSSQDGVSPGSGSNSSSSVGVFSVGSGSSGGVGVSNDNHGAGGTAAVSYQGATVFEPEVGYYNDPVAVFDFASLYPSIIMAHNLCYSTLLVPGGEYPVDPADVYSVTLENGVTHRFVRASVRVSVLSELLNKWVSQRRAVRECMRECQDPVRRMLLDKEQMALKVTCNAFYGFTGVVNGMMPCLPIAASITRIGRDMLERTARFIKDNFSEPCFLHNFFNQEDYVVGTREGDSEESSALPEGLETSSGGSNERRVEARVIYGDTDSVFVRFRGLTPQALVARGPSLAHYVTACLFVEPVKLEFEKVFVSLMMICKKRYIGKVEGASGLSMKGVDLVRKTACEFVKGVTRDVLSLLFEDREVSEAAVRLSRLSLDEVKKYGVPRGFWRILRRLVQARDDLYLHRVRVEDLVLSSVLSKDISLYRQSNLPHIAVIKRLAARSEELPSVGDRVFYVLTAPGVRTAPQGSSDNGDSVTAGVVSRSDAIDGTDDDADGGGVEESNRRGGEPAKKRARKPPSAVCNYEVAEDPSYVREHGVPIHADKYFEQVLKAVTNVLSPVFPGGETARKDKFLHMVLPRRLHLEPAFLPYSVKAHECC

Variants of: B1
Conditions: with dpol_hcmva UL54, P08546

Row | Variant | effect of a mutation on the interaction
1 | K35A;K158A;K224A;K237A | decreasing interaction
2 | R165A;K167A;R168A;K171A;K172A | decreasing interaction

— IntAct's records for PubMed 18682223
